Results taken from article PMC13038214, “TNFSF13 insufficiency disrupts human colonic epithelial cell growth and associated B cell dynamics” (The Journal of Clinical Investigation, 2026).

T1: FAS ligand (FASL) used as analyte in SPR (human, UniProt P48023 103-281)
T1 construct: FAS ligand (FASL), the protein flowed over immobilised FAS in SPR as positive control; also called rFASL; recombinant human FAS ligand
T1 sequence (looked up): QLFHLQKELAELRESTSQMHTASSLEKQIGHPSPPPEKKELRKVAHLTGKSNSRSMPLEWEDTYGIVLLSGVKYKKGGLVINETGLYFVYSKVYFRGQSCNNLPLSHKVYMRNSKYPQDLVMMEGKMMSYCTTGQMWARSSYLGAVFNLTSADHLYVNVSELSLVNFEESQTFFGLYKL

B1: FAS immobilised for SPR (receptor, human, UniProt P25445 26-173, looked up)
chain: QVTDINSKGLELRKTVTTVETQNLEGLHHDGQFCHKPCPPGERKARDCTVNGDEPDCVPCQEGKEYTDKAHFSSKCRRCRLCDEGHGLEVEINCTRTQNTKCRCKPNFFCNSTVCEHCDPCTKCEHGIIKECTLTSNTKCKEEGSRSN
notes: FAS receptor, the protein immobilised in SPR; also called FAS receptor

Key:
[1] = target: B1; experiment: SPR; FAS immobilised; TNFSF13 or FASL at various concentrations; sensorgrams fitted to a 1:1 kinetic binding model; n = 3 independent experiments; settings: both partners purified
[2] = target: T1, FAS ligand (FASL) used as analyte in SPR; experiment: as above; settings: both partners purified

| Kd [1] | Kd [2] | Binder |
| --- | --- | --- |
| 0.06 µM |  | TNFSF13 used as analyte in SPR (ligand, human, UniProt O75888 105-250, looked up, TNFSF13 (APRIL), the protein flowed over immobilised FAS in SPR; also called TNSF13; APRIL) AVLTQKQKKQHSVLHLVPINATSKDDSDVTEVMWQPALRRGRGLQAQGYGVRIQDAGVYLLYSQVLFQDVTFTMGQVVSREGQGRQETLFRCIRSMPSHPDRAYNSCYSAGVFHLHQGDILSVIIPRARAKLNLSPHGTFLGFVKL |
|  | 0.00409 µM | B1 |
